Experimental findings from patent US20220064648, “NOVEL X-[…] FOR THE USE IN DETECTION OF SNAP25” (Galderma Holding S.A., published 2022) are described below.

Sequences and labels used below:
B1: PEP 3.13 (ssDNA)
DNA: TTTTTAACACGACATCACTGTGCACAGCGAACTGCGTTGGCGTCGTGCCATG
modifications: W indole, X amine, Y phenol modified dU [15, 19, 46 (phenol dU), 38 (indole dU), 43 (amine dU)]
B2: PEP 3.15 (ssDNA)
DNA: TTTTTAACACGACTGCACTGTGAATCTCGAACGCATCGGGAGTCGTGCCATG
modifications: W indole, X amine, Y phenol modified dU [14, 25, 27, 43 (amine dU), 19, 46 (phenol dU), 36 (indole dU)]
B3: PEP 3.01 (ssDNA)
DNA: TTTTTAACACGACACCACTGTGGTTCTCACAGCTATGTGTTGTGGGCCCATG
modifications: W indole, X amine, Y phenol modified dU [19Y,24W,25X,27X,34Y,36W,38W,40W]
B4: PEP 3.21 (ssDNA)
DNA: TTTTTAAGCCCACTCCGGTTCGTCCATCACAGCCCACTGTGGTCGTGCCATG
modifications: W indole, X amine, Y phenol modified dU [14, 27, 43 (amine dU), 19, 23, 38, 40 (indole dU), 20, 46 (phenol dU)]
B5: PEP 3.19 (ssDNA)
DNA: TTTTTAAGCCCACGCCACTGTGACCATCGAACCACACGGCCGTCGTGCCATG
modifications: W indole, X amine, Y phenol modified dU [19, 46 (phenol dU), 27, 43 (amine dU)]
B6: PEP 3.20 (ssDNA)
DNA: TTTTTAAGCCCACAGTTCTGTGTTCATCACAGAGCAACACTGTGGGCCCATG
modifications: W indole, X amine, Y phenol modified dU [16, 17, 23, 24 (indole dU), 19 (phenol dU), 27 (amine dU)]
B7: PEP 3.03 (ssDNA)
DNA: TTTTTAACACGACAATGGTTCGGGGGGCGAACGTCACTGTGGTCGTGCCATG
modifications: W indole, X amine, Y phenol modified dU [16W,19W,20Y,34Y,38W,40W,43X,46Y]
B8: PEP 3.06 (ssDNA)
DNA: TTTTTAACACGACCGCACTGTGATAGGCGAACGGTGTGGAGGTCGTGCCATG
modifications: W indole, X amine, Y phenol modified dU [19Y,24W,35Y,43X,46Y]
B9: PEP 3.05 (ssDNA)
DNA: TTTTTAACACGACGACACTGTGTTGGGCGAACTCCGCTGGGGTGGGCCCATG
modifications: W indole, X amine, Y phenol modified dU [19Y,23W,24W,38W]
B10: PEP 3.16 (ssDNA)
DNA: TTTTTAAGCCCACATCACTGTGCGAGCCACAGATCAGGCAGGTGGGCCCATG
modifications: W indole, X amine, Y phenol modified dU [15, 19, 34 (phenol dU)]
B11: PEP 3.17 (ssDNA)
DNA: TTTTTAAGCCCACTAGAGTTCGGCCATCACAGTCCAACACTGTGGGCCCATG
modifications: W indole, X amine, Y phenol modified dU [14, 27 (amine dU), 19 (indole dU), 20 (phenol dU)]
B12: PEP 3.04 (ssDNA)
DNA: TTTTTAAGCCCACGGCACTGTGCTCAGCACAGCTCGGGGTGGTGGGCCCATG
modifications: W indole, X amine, Y phenol modified dU [19Y,24W,34Y,40W]
B13: PEP 3.02 (ssDNA)
DNA: TTTTTAACACGACAGCACTGTGGTTCGCGAACCTCAAGCTCGTCGTGCCATG
modifications: W indole, X amine, Y phenol modified dU [19Y,24W,25X,34Y,40W,43X,46Y]
B14: PEP 3.22 (ssDNA)
DNA: TTTTTAACACGACATCACTGTGGAAGACACAGGACGTGCGTGTCGTGCCATG
modifications: W indole, X amine, Y phenol modified dU [15, 19, 46 (phenol dU), 43 (amine dU)]
B15: PEP 3.07 (ssDNA)
DNA: TTTTTAAGCCCACGACACTGTGGCCAACACAGTACATGCATGTGGGCCCATG
modifications: W indole, X amine, Y phenol modified dU [19Y]
B16: PEP 3.10 (ssDNA)
DNA: TTTTTAACACGACAGCACTGTGCACAGCACAGCTCAAGGGTGTGGGCCCATG
modifications: W indole, X amine, Y phenol modified dU [19Y,34Y]
B17: PEP 3.12 (ssDNA)
DNA: TTTTTAACACGACTATCCTGTGAGCAACACAGGGCGGCACTGTGGGCCCATG
modifications: W indole, X amine, Y phenol modified dU [14 (amine dU), 16 (indole dU), 19 (phenol dU)]
B18: PEP 3.24 (ssDNA)
DNA: TTTTTAAGCCCACCAGGGTTCGGGAGCCGAACGCCAGCACTGTCGTGCCATG
modifications: W indole, X amine, Y phenol modified dU [19,20,43,46]
B19: PEP 3.14 (ssDNA)
DNA: TTTTTAACACGACACCACTGTGCCCACCACAGTTCACTGAAGTGGGCCCATG
modifications: W indole, X amine, Y phenol modified dU [19, 34 (phenol dU), 38 (indole dU)]
B20: PEP 3.08 (ssDNA)
DNA: TTTTTAACACGACGTCACTGTGGTTCTCGAACGCCGCGCTTGTCGTGCCATG
modifications: W indole, X amine, Y phenol modified dU [15Y,19Y,24W,25X,27X,40W,43X,46Y]
B21: PEP 3.11 (ssDNA)
DNA: TTTTTAAGCCCACTGTCGTTCGGCGGGCGAACGACAGCATGGTCGTGCCATG
modifications: W indole, X amine, Y phenol modified dU [14X,16W,19W,20Y,40W,43X,46Y]
B22: PEP 3.23 (ssDNA)
DNA: TTTTTAAGCCCACCTCACTGTGCAAGTCACAGGTCGGCACCGTGGGCCCATG
modifications: W indole, X amine, Y phenol modified dU [15, 19, 34 (phenol dU), 27 (amine dU)]
B23: PEP 3.18 (ssDNA)
DNA: TTTTTAACACGACACGGGTTCGCACATCACAGAGATACACTGTCGTGCCATG
modifications: W indole, X amine, Y phenol modified dU [19, 36 (indole dU), 20, 46 (phenol dU), 27, 43 (amine dU)]
B24: PEP 1.07 (ssDNA)
DNA: TTTTTAACACGACTCAACTGTGATTCCCACAGACTGGGCTCGTGGGCCCATG
modifications: W indole, X amine, Y phenol modified dU [14,25 (X amine dU); 19,35 (Y phenol dU); 24,40 (W indole dU)]
B25: PEP 1.04 (ssDNA)
DNA: TTTTTAACACGACGCTCCTGTGACAGCCGAACATCATTGGTGTCGTGCCATG
modifications: W indole, X amine, Y phenol modified dU [16,19,34,38,43,46]
B26: PEP 1.11 (ssDNA)
DNA: TTTTTAACACGACGCCAGTTCGAAGGTCACAGTTATTTGGCGTCGTGCCATG
modifications: W indole, X amine, Y phenol modified dU [19,36,38 (W indole dU); 20,34,46 (Y phenol dU); 27,43 (X amine dU)]
B27: PEP 1.05 (ssDNA)
DNA: TTTTTAAGCCCACCAAGCTGTGGCGGGCACAGGGCAGCATCGTCGTGCCATG
modifications: W indole, X amine, Y phenol modified dU [19,40,43,46]
B28: PEP 1.14 (ssDNA)
DNA: TTTTTAAGCCCACCTGACTGTGGTGGGCACAGTTCGCCATCGTGGGCCCATG
modifications: W indole, X amine, Y phenol modified dU [15,19,34 (Y phenol dU); 24,40 (W indole dU)]
B29: PEP 1.08 (ssDNA)
DNA: TTTTTAACACGACCCCGGTTCGACTCCCACAGAGCGGGGGTGTCGTGCCATG
modifications: W indole, X amine, Y phenol modified dU [19 (W indole dU); 20,46 (Y phenol dU); 25,43 (X amine dU)]
B30: PEP 1.06 (ssDNA)
DNA: TTTTTAAGCCCACCTCAGTTCGCTCATCGAACGACGATGCTGTGGGCCCATG
modifications: W indole, X amine, Y phenol modified dU [15,20 (Y phenol dU); 19,24,38 (W indole dU); 27 (X amine dU)]
B31: PEP 1.15 (ssDNA)
DNA: TTTTTAAGCCCACCTCTCTGTGGGAGACACAGTTATTGCAGGTGGGCCCATG
modifications: W indole, X amine, Y phenol modified dU [15,19,34 (Y phenol dU); 17,36 (W indole dU)]
B32: PEP 1.09 (ssDNA)
DNA: TTTTTAACACGACTTATCTGTGTCAGTCGAACGTCGCGGAGGTGGGCCCATG
modifications: W indole, X amine, Y phenol modified dU [14,27 (X amine dU); 15,19,34 (Y phenol dU); 17,23 (W indole dU)]
B33: PEP 1.03 (ssDNA)
DNA: TTTTTAACACGACGGGGGTTCGGGCAGCGAACAGATGGGCGGTGGGCCCATG
modifications: W indole, X amine, Y phenol modified dU [19,20,36]
B34: PEP 1.10 (ssDNA)
DNA: TTTTTAACACGACGGGCGTTCGCTGGTCGAACACCAATGCTGTGGGCCCATG
modifications: W indole, X amine, Y phenol modified dU [19,24,38 (W indole dU); 20 (Y phenol dU); 27 (X amine dU)]
B35: PEP 1.12 (ssDNA)
DNA: TTTTTAAGCCCACAAAAGTTCGATCAGCACAGGTCGCCAAAGTCGTGCCATG
modifications: W indole, X amine, Y phenol modified dU [19,24 (W indole dU); 20,34,46 (Y phenol dU); 43 (X amine dU)]

One data set addresses T1, SNAP25 Peptide 3 (PEP3; only a fragment of it is a SNAP25 subsequence) (Homo sapiens, UniProt P60880 SEQ:1-33).
T1 chain: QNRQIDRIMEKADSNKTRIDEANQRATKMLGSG
Kind of data set: ELONA. An excerpt: (§1) The data in Table 2 was collected by running direct ELISA assays on the 96 X-aptamers, elucidating their ability to bind SNAP25, SNAP25 fragments (PEP1, PEP2, PEP3, and PEP4), and a negative control. The X-aptamers were biotinylated and immobilized onto streptavidin-coated plates and were utilized as detection molecules. Higher numbers represent strong binding. The negative control peptide is a random peptide to measure the amount of binding that occurs to a random amino acid sequence.
The molecule B1 had a binding signal of 115 ELISA signal. Still for that read-out and setting: for B2 the value was 114 ELISA signal; for B3, 503 ELISA signal; for B4, 96 ELISA signal. In turn, B5 registered a binding signal of 102 ELISA signal. The same measure, in the same setting: with B6 the figure was 97 ELISA signal. On the same count and under the same terms, with B7 the figure was 338 ELISA signal; with B8, 230 ELISA signal. Still for that read-out and setting: with B9 the figure was 272 ELISA signal. With B10, the binding signal was 111 ELISA signal.

In turn, B11 had a binding signal of 110 ELISA signal.

In the case of B12, the binding signal came out at 276 ELISA signal. On the same count and under the same terms, for B13 the value was 406 ELISA signal. Still for that read-out and setting: for B14 the value was 96 ELISA signal; for B15, 219 ELISA signal; for B16, 139 ELISA signal. The same measure, in the same setting: for B17 the value was 118 ELISA signal; for B18, 81 ELISA signal. The molecule B19 gave a binding signal of 114 ELISA signal.

The molecule B20 yielded a binding signal of 207 ELISA signal. Still for that read-out and setting: with B21 the figure was 137 ELISA signal; with B22, 95 ELISA signal; with B23, 105 ELISA signal.

The next data set concerns the target T2, SNAP25 Peptide 1 (PEP1) (Homo sapiens, UniProt P60880 SEQ:1-35).
T2 chain: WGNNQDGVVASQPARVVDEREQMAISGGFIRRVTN
In words: ELONA.
Excerpt: as §1
In turn, B24 returned a binding signal of 429 ELISA signal.

B25 came in with a binding signal of 645 ELISA signal. On the same count and under the same terms, with B26 the figure was 293 ELISA signal; with B27, 641 ELISA signal. Still for that read-out and setting: with B28 the figure was 241 ELISA signal. Still for that read-out and setting: with B29 the figure was 357 ELISA signal; with B30, 477 ELISA signal.

In turn, B31 gave a binding signal of 220 ELISA signal. B32 had a binding signal of 337 ELISA signal.

In turn, B33 gave a binding signal of 677 ELISA signal. Still for that read-out and setting: for B34 the value was 293 ELISA signal. Molecule B35 displayed a binding signal of 289 ELISA signal.
